{"source": "the RNAGym collection of RNA variant scans (doi:10.1073/pnas.2313332121)", "parents": {"B1": {"name": "TPR 5TU (parent)", "chain": "GGAUCUUCUCGAUCUAACAAAAAAGACAAAUCUGCCACAAAGCUUGAGAGCAUCUUCGGAUGCAGAGGCGGCAGCCUUCGGUGGCGCGAUAGCGCCAACGUUCUCAACUAUGACACGCAAAACGCGUGCUCCGUUGAAUGGAGUUUAUCAUG"}}, "note": "Variants at the floor of the assay were thinned out.", "data": [{"variants_of": "B1", "experiment": "polymerase ribozyme fitness, log enrichment relative to wild type (log ratio); higher = more active; in vitro selection for triplet polymerase activity", "how_it_was_run": "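Each subunit of a heterodimeric triplet polymerase ribozyme was represented by a PCR-built, transcribed mutant library that underwent triplicate single-round in vitro selection with frozen incubation at −7 °C. Extended constructs were recovered by gel excision, streptavidin-bead capture and RT-PCR, and Illumina sequencing of input and output libraries kept genotypes with ≥10 input reads and ≥1 read per output. Fitness is the logarithm of genotype enrichment relative to wild-type enrichment, from inverse-variance-weighted replicate averages, with a logarithm base of 2.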", "values": [{"variant": "G50C U56C C87G A89C G100C A120G C125U", "polymerase ribozyme fitness (log ratio)": "≤ -4.2"}, {"variant": "G50C U53A C57G A73G C93A C95A U101G A107G A138C U144C", "polymerase ribozyme fitness (log ratio)": "≤ -4.2"}, {"variant": "G50C C118G G140A", "polymerase ribozyme fitness (log ratio)": "≤ -4.2"}, {"variant": "G50U A120U C125G", "polymerase ribozyme fitness (log ratio)": -0.502}, {"variant": "G50C C87G C114A A115G", "polymerase ribozyme fitness (log ratio)": "≤ -4.2"}, {"variant": "G50C U61A A110U U145G", "polymerase ribozyme fitness (log ratio)": "≤ -4.2"}, {"variant": "G50C C76U", "polymerase ribozyme fitness (log ratio)": -1.88}, {"variant": "G50U C51U C72U C93G U101C C108A G112U A113U A121G", "polymerase ribozyme fitness (log ratio)": "≤ -4.2"}, {"variant": "G50U G80A G92A A115U", "polymerase ribozyme fitness (log ratio)": "≤ -4.2"}, {"variant": "G50U U55A A66G C95U C103A A138U", "polymerase ribozyme fitness (log ratio)": "≤ -4.2"}, {"variant": "G50U G65C A66C C96G", "polymerase ribozyme fitness (log ratio)": "≤ -4.2"}, {"variant": "G50U A106G", "polymerase ribozyme fitness (log ratio)": 0.264}, {"variant": "G50C C87U", "polymerase ribozyme fitness (log ratio)": -3.6}, {"variant": "G50C C95U U146G", "polymerase ribozyme fitness (log ratio)": -3.64}, {"variant": "G50C C125A", "polymerase ribozyme fitness (log ratio)": -2.76}, {"variant": "G50C C125U", "polymerase ribozyme fitness (log ratio)": -3.89}, {"variant": "G50U A66C C69U A73C", "polymerase ribozyme fitness (log ratio)": "≤ -4.2"}, {"variant": "G50C G84A U104C A106C", "polymerase ribozyme fitness (log ratio)": "≤ -4.2"}, {"variant": "C51A A66G G71A G80C G94C A113G", "polymerase ribozyme fitness (log ratio)": "≤ -4.2"}, {"variant": "G50U G83C", "polymerase ribozyme fitness (log ratio)": -0.813}, {"variant": "G50U G83A", "polymerase ribozyme fitness (log ratio)": -0.347}, {"variant": "G50C C87U C123A C125G", "polymerase ribozyme fitness (log ratio)": -3.47}, {"variant": "G50U C96A C116G U144G", "polymerase ribozyme fitness (log ratio)": -1.25}, {"variant": "G50C C87U A150C U151A", "polymerase ribozyme fitness (log ratio)": "≤ -4.2"}, {"variant": "G50C G94A A107G U134C", "polymerase ribozyme fitness (log ratio)": "≤ -4.2"}, {"variant": "G50C C103A C149U", "polymerase ribozyme fitness (log ratio)": "≤ -4.2"}, {"variant": "G50U A52G", "polymerase ribozyme fitness (log ratio)": -0.0259}, {"variant": "G50U U55A C96U", "polymerase ribozyme fitness (log ratio)": -0.864}, {"variant": "G50C G68A A142U", "polymerase ribozyme fitness (log ratio)": "≤ -4.2"}, {"variant": "G50U G81A C95U", "polymerase ribozyme fitness (log ratio)": 0.505}, {"variant": "G50U C63U C79G C131G A137C", "polymerase ribozyme fitness (log ratio)": "≤ -4.2"}, {"variant": "G50C G59C G62A G68C C95U U148C", "polymerase ribozyme fitness (log ratio)": "≤ -4.2"}, {"variant": "G50C U77G C93G", "polymerase ribozyme fitness (log ratio)": "≤ -4.2"}, {"variant": "G50C G71U C85A G124U", "polymerase ribozyme fitness (log ratio)": "≤ -4.2"}, {"variant": "C51A A52C U146G", "polymerase ribozyme fitness (log ratio)": -2.06}, {"variant": "G50U", "polymerase ribozyme fitness (log ratio)": 0.257}, {"variant": "G50U C125G", "polymerase ribozyme fitness (log ratio)": -0.442}, {"variant": "G50C U130C", "polymerase ribozyme fitness (log ratio)": -1.3}, {"variant": "G50U C96G", "polymerase ribozyme fitness (log ratio)": -0.544}, {"variant": "G50C U61A G62U A142C", "polymerase ribozyme fitness (log ratio)": -2.79}, {"variant": "C51A C57U U146G", "polymerase ribozyme fitness (log ratio)": -1.67}, {"variant": "G50U A66C C76U U82G A89G A138U", "polymerase ribozyme fitness (log ratio)": "≤ -4.2"}, {"variant": "G50U U102A", "polymerase ribozyme fitness (log ratio)": -0.888}, {"variant": "G50U U102G", "polymerase ribozyme fitness (log ratio)": -2.92}, {"variant": "G50U U145C", "polymerase ribozyme fitness (log ratio)": -0.536}, {"variant": "C51A A52C A73G G83U U127C", "polymerase ribozyme fitness (log ratio)": "≤ -4.2"}, {"variant": "G50U G94A", "polymerase ribozyme fitness (log ratio)": -0.00242}, {"variant": "G50U C87U G136U", "polymerase ribozyme fitness (log ratio)": -2.29}, {"variant": "G50C C93G U104C", "polymerase ribozyme fitness (log ratio)": "≤ -4.2"}, {"variant": "G50C C93U U104G G136U G141A", "polymerase ribozyme fitness (log ratio)": "≤ -4.2"}, {"variant": "G50C G59C G83A", "polymerase ribozyme fitness (log ratio)": -3.91}, {"variant": "C51A C57G G68C A73C C76G G86U G100C A120G A122C U134A", "polymerase ribozyme fitness (log ratio)": "≤ -4.2"}, {"variant": "C51A C57A C87U A98G U146G", "polymerase ribozyme fitness (log ratio)": -3.12}, {"variant": "G50C U90C U104G", "polymerase ribozyme fitness (log ratio)": "≤ -4.2"}, {"variant": "G50C U56A", "polymerase ribozyme fitness (log ratio)": -2.92}, {"variant": "G50U G86A C93U C96U", "polymerase ribozyme fitness (log ratio)": -0.529}, {"variant": "C51A C63U C85A G126A C129A G140A", "polymerase ribozyme fitness (log ratio)": "≤ -4.2"}, {"variant": "G50C G83U C93A G100U G124C G128U C132G U145G", "polymerase ribozyme fitness (log ratio)": "≤ -4.2"}, {"variant": "C51A C57U G59U G100C A119U A122U U145G", "polymerase ribozyme fitness (log ratio)": -4.13}, {"variant": "G50C U55A", "polymerase ribozyme fitness (log ratio)": -3.29}, {"variant": "G50U A122G", "polymerase ribozyme fitness (log ratio)": -0.236}, {"variant": "G50U G92A", "polymerase ribozyme fitness (log ratio)": -2.93}, {"variant": "C51A C85U", "polymerase ribozyme fitness (log ratio)": -1.01}, {"variant": "G50C U56A A73G C125A", "polymerase ribozyme fitness (log ratio)": -4.1}, {"variant": "G50C C76U C85U C116G", "polymerase ribozyme fitness (log ratio)": -2.09}, {"variant": "G50U A60C G84A", "polymerase ribozyme fitness (log ratio)": -2.47}, {"variant": "G50C C96G U144C", "polymerase ribozyme fitness (log ratio)": "≤ -4.2"}, {"variant": "G50U A52G C75A C85A G92C G126U G128A A147U", "polymerase ribozyme fitness (log ratio)": "≤ -4.2"}, {"variant": "G50U A64G C103G C125A A142G", "polymerase ribozyme fitness (log ratio)": "≤ -4.2"}, {"variant": "C51A C85A U134C", "polymerase ribozyme fitness (log ratio)": -2.88}, {"variant": "G50C G83U", "polymerase ribozyme fitness (log ratio)": -3.77}, {"variant": "G50C U55G C63A C76G A91G C125G U145C", "polymerase ribozyme fitness (log ratio)": "≤ -4.2"}, {"variant": "G50C G67A U90G A142G", "polymerase ribozyme fitness (log ratio)": "≤ -4.2"}, {"variant": "G50C C96A", "polymerase ribozyme fitness (log ratio)": -3.01}, {"variant": "G50C G94A C116U", "polymerase ribozyme fitness (log ratio)": -3.3}, {"variant": "G50U G81C U134A", "polymerase ribozyme fitness (log ratio)": -2.19}, {"variant": "G50U U139C", "polymerase ribozyme fitness (log ratio)": -3.65}, {"variant": "C51A A52U C63U C99G A106C A119G G126U", "polymerase ribozyme fitness (log ratio)": "≤ -4.2"}, {"variant": "G50C U78A G92A", "polymerase ribozyme fitness (log ratio)": "≤ -4.2"}, {"variant": "C51A C75U", "polymerase ribozyme fitness (log ratio)": -2.27}, {"variant": "G50U C75G G86U C87A A89U", "polymerase ribozyme fitness (log ratio)": "≤ -4.2"}, {"variant": "G50U U55A G71U", "polymerase ribozyme fitness (log ratio)": -3.35}, {"variant": "G50U U104G G143U", "polymerase ribozyme fitness (log ratio)": -3.47}, {"variant": "G50C G92A C116U U151C", "polymerase ribozyme fitness (log ratio)": "≤ -4.2"}]}]}
